Data on four molecules can be found in patent US20120208237A1 (Novo Nordisk, published 2012).

The target in assay [1] is recombinant soluble KIR2DL3 (entire extracellular domain, produced in E. coli) (human) (UniProt P43628). Kind of assay: Biacore, KIR2DL3 chip; first Ab 1-7F9 bound. For orientation: In SPR one partner is held on a chip, and binding of the other changes the refractive index at the surface.
The target is the same in assay [2]. Kind of assay: Biacore competition, KIR2DL3 chip; competitor (second Ab) Pan2D.
Assay [3] has the same target. Kind of assay: Biacore competition, KIR2DL3 chip; competitor (second Ab) DF200.
For assay [4] the target is unchanged. Put plainly: Biacore competition, KIR2DL3 chip; competitor (second Ab) 1-4F1.
Assay [5] has the same target. Kind of assay: Biacore competition, KIR2DL3 chip; competitor (second Ab) 1-6F1.
Assay [6] has the same target. Kind of assay: Biacore, KIR2DL3 chip; first Ab 1-4F1 bound.
Assay [7] shares this target. Kind of assay: Biacore, KIR2DL3 chip; direct binding (field of first Ab 1-4F1).
Assay [8] has the same target. Put plainly: Biacore, KIR2DL3 chip; direct binding (field of first Ab 1-7F9).
The target is the same in assay [9]. Kind of assay: Biacore, KIR2DL3 chip; first Ab 1-6F1 bound.
Assay [10] shares this target. Kind of assay: Biacore, KIR2DL3 chip; direct binding (field of first Ab 1-6F1).
The target is the same in assay [11]. Kind of assay: Biacore competition, KIR2DL3 chip; competitor (second Ab) 1-7F9.
Assay [12] addresses recombinant soluble KIR2DL1 (entire extracellular domain, produced in E. coli) (human) (UniProt P43626). Kind of assay: Biacore, KIR2DL1 chip; direct binding (field of first Ab 1-7F9).
Assay [13] has as its target recombinant soluble KIR2DL3 (entire extracellular domain, produced in E. coli) (human) (UniProt P43628). Kind of assay: Biacore competition (Example 10), KIR2DL3 chip; competitor (second Ab) Pan2D.
Assay [14] addresses recombinant soluble KIR2DL1 (entire extracellular domain, produced in E. coli) (human) (UniProt P43626). Kind of assay: Biacore competition, KIR2DL1 chip; competitor (second Ab) 1-7F9.
The target in assay [15] is recombinant soluble KIR2DL3 (entire extracellular domain, produced in E. coli) (human) (UniProt P43628). Kind of assay: Biacore, KIR2DL3 chip; first Ab 1-6F5 bound.
Assay [16] concerns the target recombinant soluble KIR2DL1 (entire extracellular domain, produced in E. coli) (human) (UniProt P43626). Put plainly: Biacore, KIR2DL1 chip; direct binding (field of first Ab 1-6F1).
For assay [17] the target is unchanged. Put plainly: Biacore competition, KIR2DL1 chip; competitor (second Ab) 1-6F5.
The target in assay [18] is immobilized KIR2DS1 protein (human) (UniProt Q14954). Put plainly: Biacore, KIR2DS1 chip; first Ab 1-7F9 bound.
immobilized KIR2DS1 protein (human), sequence (Q14954 22-245 limits assumed): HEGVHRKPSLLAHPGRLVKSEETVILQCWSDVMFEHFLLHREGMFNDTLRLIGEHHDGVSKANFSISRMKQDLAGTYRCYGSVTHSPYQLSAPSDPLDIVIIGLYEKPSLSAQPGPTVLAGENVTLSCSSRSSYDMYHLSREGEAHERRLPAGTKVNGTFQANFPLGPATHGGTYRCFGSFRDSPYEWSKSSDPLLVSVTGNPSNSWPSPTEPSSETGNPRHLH
Assay [19] addresses recombinant soluble KIR2DL1 (entire extracellular domain, produced in E. coli) (human) (UniProt P43626). Put plainly: Biacore, KIR2DL1 chip; first Ab 1-6F5 bound.
For assay [20] the target is unchanged. Kind of assay: Biacore competition (Example 10), KIR2DL1 chip; competitor (second Ab) 1-7F9.
For assay [21], the target named is recombinant soluble KIR2DL3 (entire extracellular domain, produced in E. coli) (human) (UniProt P43628). Kind of assay: Biacore SPR, antibody over immobilized KIR2DL3 (bivalent binding).
Assay [22] concerns the target recombinant soluble KIR2DL1 (entire extracellular domain, produced in E. coli) (human) (UniProt P43626). Kind of assay: Biacore competition, KIR2DL1 chip; competitor (second Ab) EB6.
Assay [23] addresses recombinant soluble KIR2DL3 (entire extracellular domain, produced in E. coli) (human) (UniProt P43628). Kind of assay: Biacore competition (Example 10), KIR2DL3 chip; competitor (second Ab) DF200 (self).
The target is the same in assay [24]. Kind of assay: Biacore, KIR2DL3 chip; direct binding (field of first Ab 1-6F5).
Assay [25] addresses recombinant soluble KIR2DL1 (entire extracellular domain, produced in E. coli) (human) (UniProt P43626). Kind of assay: Biacore competition, KIR2DL1 chip; competitor (second Ab) 1-6F1.
For assay [26] the target is unchanged. Kind of assay: Biacore SPR, antibody over immobilized KIR2DL1 (bivalent binding).
Assay [27] shares this target. Kind of assay: Biacore competition (Example 10), KIR2DL1 chip; competitor (second Ab) DF200 (self).
Assay [28] addresses recombinant soluble KIR2DL3 (entire extracellular domain, produced in E. coli) (human) (UniProt P43628). Kind of assay: Biacore competition, KIR2DL3 chip; competitor (second Ab) 1-6F5.
For assay [29] the target is unchanged. Put plainly: Biacore competition (Example 10), KIR2DL3 chip; competitor (second Ab) 1-7F9.
For assay [30], the target named is immobilized KIR2DS1 protein (human) (UniProt Q14954). Put plainly: Biacore competition, KIR2DS1 chip; competitor (second Ab) Pan2D.
The target in assay [31] is recombinant soluble KIR2DL1 (entire extracellular domain, produced in E. coli) (human) (UniProt P43626). Kind of assay: Biacore, KIR2DL1 chip; first Ab 1-6F1 bound.
Assay [32] has the same target. Put plainly: Biacore competition, KIR2DL1 chip; competitor (second Ab) 1-4F1.
Assay [33] shares this target. Kind of assay: Biacore, KIR2DL1 chip; first Ab 1-7F9 bound.
Assay [34] deals with immobilized KIR2DS1 protein (human) (UniProt Q14954). Kind of assay: Biacore competition, KIR2DS1 chip; competitor (second Ab) 1-7F9.
Assay [35] concerns the target recombinant soluble KIR2DL3 (entire extracellular domain, produced in E. coli) (human) (UniProt P43628). Put plainly: Biacore competition, KIR2DL3 chip; competitor (second Ab) GL183.
Assay [36] has as its target recombinant soluble KIR2DL1 (entire extracellular domain, produced in E. coli) (human) (UniProt P43626). Kind of assay: Biacore competition, KIR2DL1 chip; competitor (second Ab) Pan2D.
Assay [37] has the same target. Kind of assay: Biacore, KIR2DL1 chip; direct binding (field of first Ab 1-6F5).
Assay [38] shares this target. Put plainly: Biacore competition (Example 10), KIR2DL1 chip; competitor (second Ab) Pan2D.
In assay [39] the target is immobilized KIR2DS1 protein (human) (UniProt Q14954). Put plainly: Biacore, KIR2DS1 chip; direct binding (field of first Ab 1-7F9).
Assay [40] has the same target. Kind of assay: Biacore competition, KIR2DS1 chip; competitor (second Ab) 1-4F1.
Assay [41] has as its target recombinant soluble KIR2DL1 (entire extracellular domain, produced in E. coli) (human) (UniProt P43626). Put plainly: Biacore competition, KIR2DL1 chip; competitor (second Ab) EB6 (self).
Assay [42] has the same target. Kind of assay: Biacore, KIR2DL1 chip; direct binding (field of first Ab EB6).
The target is the same in assay [43]. Kind of assay: Biacore competition, KIR2DL1 chip; competitor (second Ab) DF200.
The target is the same in assay [44]. Put plainly: Biacore, KIR2DL1 chip; first Ab EB6 bound.
In assay [45] the target is T1, KIR2DS3 expressed on transfected cells (human, UniProt Q14952 22-304).
T1 construct: whole, on cells
T1 sequence (Q14952 22-304): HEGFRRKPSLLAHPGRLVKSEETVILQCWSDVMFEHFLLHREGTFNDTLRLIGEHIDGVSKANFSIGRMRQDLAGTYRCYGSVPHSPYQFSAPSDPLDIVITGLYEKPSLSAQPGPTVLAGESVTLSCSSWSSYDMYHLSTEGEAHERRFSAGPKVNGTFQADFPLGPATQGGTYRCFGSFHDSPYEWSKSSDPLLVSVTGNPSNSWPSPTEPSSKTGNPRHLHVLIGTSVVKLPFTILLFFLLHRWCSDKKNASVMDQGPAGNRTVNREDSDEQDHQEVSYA
Kind of assay: flow cytometry on cells transfected with KIR2DS3 (fifth column; its head is printed KIRDLS1 a second time, the legend's order gives KIR2DS3). The method in brief:
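Binding of human anti-KIR monoclonal antibodies to cells stably transfected with KIR2DS3 was measured by flow cytometry. Cells were incubated with the antibody at various concentrations (typically 0-50 μg/ml) in DMEM medium containing 2% FCS. They were then washed and stained with an APC-conjugated secondary antibody specific for human IgG, with all incubations and washes at 0-4° C. Cells were resuspended in PBS and analysed on a FACScalibur or FACScanto.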
A general note: A flow cytometer gives signals particle by particle.

Turning to murine monoclonal antibody GL183, the values for the RU, second antibody after first antibody in assay [1], in [6] and in assay [9] were 200 RU, 330 RU and 570 RU, respectively. In addition, the % inhibition of second antibody binding came out at 40% in [2]; 8% in assay [3]; 75% in [4]; 18% in assay [5]; 76% in assay [11]. In addition, the figures for the RU, second antibody alone in assay [7], in assay [8] and in assay [10] were 1240 RU, 800 RU and 620 RU, respectively.
Regarding murine monoclonal antibody DF200, the RU, second antibody alone in [12] was 600 RU; in assay [16] it was 350 RU; in [24], 800 RU; in [7] it was 1140 RU; in assay [8] it was 770 RU; in assay [37], 350 RU. The RU, second antibody alone in assay [10] was 790 RU; in assay [39] it was 900 RU. Also, the % inhibition of second antibody binding in assay [13] is 50%; in [14], 27%; in [17], 15%; in assay [2], 75%; in [20], 17%; in [22] it was 90%. In addition, the % inhibition of second antibody binding in assay [4] came to 75%; in [23], 85%; in assay [25], 15%; in assay [5] it was 16%; in assay [27], 80%; in assay [28] it was 4%. The % inhibition of second antibody binding is 80% in assay [29]; 70% in assay [30]; 92% in [32]; 15% in assay [34]; 20% in [35]; 80% in [36]. For the same molecule, the % inhibition of second antibody binding is 85% in [38], 62% in assay [11] and 87% in [40]. Also, the RU, second antibody after first antibody is 450 RU in assay [1]; 760 RU in [15]; 1090 RU in assay [18]; 290 RU in assay [19]; 210 RU in assay [6]; 310 RU in assay [31]. The RU, second antibody after first antibody in [33] is 545 RU; in assay [9], 760 RU. Moreover, the Kd in assay [21] came out at 2 nM; in assay [26], 10.9 nM.
With murine monoclonal antibody EB6, the % inhibition of second antibody binding in [41] was 57%; in [14], 65%; in [43], 60%; in assay [25] it was 23%; in assay [32], 48%; in assay [36], 40%. Besides, the values for the RU, second antibody alone in assay [12], in assay [42] and in [16] were 460 RU, 460 RU and 260 RU, respectively. Moreover, the RU, second antibody after first antibody is 200 RU in [44], 320 RU in assay [31] and 180 RU in assay [33].

B1: murine monoclonal antibody NKVSF1 (Pan2D) (antibody, V domains shown)
VH: EVQLQQSGTVLARPGASVKMSCKASGYTFTSYWMHWMKQRPGQGLEWIGTIYPGNSDTNYNQKFKGKAKLTAVTSTNTAYMELSSLTNEDSAVYYCSRPTTATRSSAMDYWGQGTSVTVSS
VL: QIVLTQSPASMSASLGERVTMTCTASSSVSSSYLYWYQQKPGSSPKLWIYSTSNLASGVPARFSGSGSGTSYSLTISSMEAEDAATYYCHQYHRSPPTFGGGTKLEIKR
notes: Murine mAb, bought from Serotec (MCA2243)
Consider B1, for which, in assay [45], the binding result is “no binding (tested: 1 µg/ml)”.
